This is an account of results in patent US6617117.

In one data set the test system is T1, human GST-SAPK4.
T1 sequence: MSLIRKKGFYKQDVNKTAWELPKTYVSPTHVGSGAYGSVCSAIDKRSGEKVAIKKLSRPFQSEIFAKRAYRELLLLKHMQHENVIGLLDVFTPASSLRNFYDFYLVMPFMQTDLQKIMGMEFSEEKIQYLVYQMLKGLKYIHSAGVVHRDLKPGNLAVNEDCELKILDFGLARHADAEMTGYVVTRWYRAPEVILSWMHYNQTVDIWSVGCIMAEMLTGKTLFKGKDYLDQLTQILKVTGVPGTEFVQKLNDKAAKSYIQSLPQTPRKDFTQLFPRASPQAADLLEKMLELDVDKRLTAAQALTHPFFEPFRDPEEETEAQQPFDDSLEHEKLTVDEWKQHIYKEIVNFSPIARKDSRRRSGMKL

Data set [1] has as its target SAPK3 (untagged, transfected) (rat) (UniProt Q63538). Description: cell-based or functional assay.
Data set [2] deals with c-myc epitope-tagged SAPK4 (human) (UniProt O15264). Briefly: cell-based or functional assay.

SAPK3 (untagged, transfected) (rat), sequence (Q63538 whole entry): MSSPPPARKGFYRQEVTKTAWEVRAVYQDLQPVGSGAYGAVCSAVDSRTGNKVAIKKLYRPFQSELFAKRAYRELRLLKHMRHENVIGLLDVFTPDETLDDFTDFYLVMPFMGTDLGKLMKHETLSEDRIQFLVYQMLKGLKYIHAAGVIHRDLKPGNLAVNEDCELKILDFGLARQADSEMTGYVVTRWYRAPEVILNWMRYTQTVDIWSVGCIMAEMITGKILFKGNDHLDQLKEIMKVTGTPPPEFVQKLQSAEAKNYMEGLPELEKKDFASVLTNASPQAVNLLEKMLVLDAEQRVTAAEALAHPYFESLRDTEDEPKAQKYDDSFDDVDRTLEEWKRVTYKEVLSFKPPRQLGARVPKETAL

For the substance SKK1 (MKK4), the “phosphorylation and activation of SAPK4 in vitro” value in the data set with human GST-SAPK4 is “SAPK4 is phosphorylated and activated by SKK1 in vitro, but at a much slower rate than SAPK2a under identical conditions”.

In data set [1], “human SKK3 (transfected, pcDNA3.1) (from UniProt P52564 1-334) (enzyme)” returned an SAPK3 activity (MBP phosphorylation) after cotransfection into COS cells of 10 fold and an activation of transfected SAPK3 by osmotic shock in cells cotransfected with SKK3 of 30 fold. This substance gave an SAPK4 activity (MBP phosphorylation) after co-transfection into COS cells in data set [2] of 12.5 fold.
